Reference: US20170190781A1

Target: death receptor 3 (DR3) on human PBMCs / T cells (human) (UniProt Q93038)
Experiment: cell-based or functional assay

Sequence of death receptor 3 (DR3) on human PBMCs / T cells (human) (Q93038 25-417 limits assumed): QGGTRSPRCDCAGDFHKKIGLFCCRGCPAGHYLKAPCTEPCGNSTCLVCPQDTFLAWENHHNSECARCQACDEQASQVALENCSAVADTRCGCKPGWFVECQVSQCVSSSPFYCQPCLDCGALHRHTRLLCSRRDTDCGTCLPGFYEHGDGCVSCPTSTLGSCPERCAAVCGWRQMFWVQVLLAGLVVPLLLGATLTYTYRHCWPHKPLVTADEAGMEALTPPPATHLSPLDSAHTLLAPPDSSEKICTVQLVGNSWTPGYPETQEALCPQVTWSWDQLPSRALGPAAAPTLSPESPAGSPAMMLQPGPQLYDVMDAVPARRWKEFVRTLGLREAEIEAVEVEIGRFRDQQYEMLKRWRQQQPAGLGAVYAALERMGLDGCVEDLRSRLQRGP

Substance: recombinant soluble human Flag-TL1A(EC) (ligand)
- IL-13 production by T cells with anti-CD3/anti-CD28, 1 ug/mL TL1A-flag (FIG. 4): 1300 pg/mL
- IL-13 production by T cells with anti-CD3/anti-CD28, 1 ug/mL TL1A-flag (FIG. 8): 1850 pg/mL
- p65 phosphorylation-positive cells (%) in PBMCs, 40 nM TL1A-flag (FIG. 2B): 55%
- p65 phosphorylation-positive cells (%) in PBMCs, 40 nM TL1A-flag alone (FIG. 2A): 45%
- p65 phosphorylation-positive cells (%) in PBMCs, TL1A alone (FIG. 3): 55%
- p65 phosphorylation-positive cells (%) in PBMCs, TL1A alone (FIG. 5): 69.5%
- p65 phosphorylation-positive cells (%) in PBMCs, TL1A alone (FIG. 6): 45%
- p65 phosphorylation-positive cells (%) in PBMCs, TL1A alone (FIG. 7): 55%
